Reference: patent US8039432B2, “Method of treatment of diabetes and/or obesity with reduced nausea side effect” (Conjuchem, LLC, priority 2005, dated 2011)
Where two headings read alike, the source gives them in different places. Values belong to the compound of their own block, whether it stands above or below them.

How the values were obtained:
male Sprague-Dawley rats [1] = assay: Kaolin intake (pica) test; conditions: for kaolin intake after dosing relative to 0.9% NaCl: LiCl IP, exendin-4 and CJC-1134-PC 0.5 nmol/kg SC
subjects = conditions: subcutaneous injection, 1.5 nmol/kg body weight and higher; cited from earlier work
male Sprague-Dawley rats [2] = conditions: rat, in vivo
Description: One model for studying gastrointestinal malaise in response to administration of a test agent is the conditioned taste aversion test (Peeters and Broekkamp, 1994, J. Steroid Biochem. Mol. Biol., 49:417-427). Conditioned taste aversion is a form of associative learning in which animals learn to avoid flavors of substances where initial ingestion of the substance was followed by illness. In conditioned taste aversion, animals learn to associate a flavor, or conditioned stimulus, with the aversive effects of an administered agent, or unconditioned stimulus. Following conditioned stimulus—unconditioned stimulus pairings, animals reduce their consumption of the conditioned stimulus, and/or show a preference for other tastes when later presented with the conditioned flavor. […] The conditioned stimulus was 0.1% saccharin flavored water with high palatability. […]
Following injection, all groups were given food ad libitum and 2 bottles of water. At 72 h and 96 h post dose, a choice of tap water or 0.1% saccharin solution (conditioned stimulus) was offered, and intake of both solutions was measured for 12 hours. Mean saccharin preference ratios, representing the percentage of saccharin solution consumed relative to total liquid intake, were determined for each group (FIGS. 1 and 2).

Sprague Dawley rats = assay: Rat toxicity study (7-day and 28-day); assay type: in vivo
Procedure: Immediately following injection, rats were housed individually, and food consumption and changes in body weights were monitored. […] However, by day 4, food consumption was similar to that observed in rats receiving vehicle only (FIG. 4). […] (FIG. 5).
Recombinant human albumin (rHA) was also dosed at 23 mg/kg as an additional control.

monkeys = assay: Monkey toxicity study (7-day and 28-day); assay type: in vivo
Procedure: Recombinant human albumin was also dosed at 9 mg/kg as an additional control.

[3] = tested on: female diabetic db/db mice; assay type: in vivo, mouse; conditions: for abnormal clinical signs: mouse, in vivo
Procedure: Blood glycemia was recorded at the following time points: pre-dose, 1, 3, 6, 24, 30, 48, 52, 74 and 101 hours post dose using a handheld glucometer (Accu-check compact, Roche Diagnostics, Canada). Food and water intake were recorded at the following timepoints: 0 to 6, 6 to 24, 24 to 30, 30 to 48, 48 to 72 and 72 to 101 hours post dose.

[4] = tested on: Male Zucker Diabetic Fatty (ZDF) rats; assay: Anti-obesity test in ZDF rats; assay type: in vivo, rat; conditions: for cumulative food intake relative to 0.9% NaCl group / cumulative weight gain compared to 0.9% NaCl: 25 days; for cumulative weight gain compared to 0.9% NaCl: four weekly SC injections, 100 and 200 nmol/kg; for day on which decrease in cumulative food intake reached statistical significance: relative to 0.9% NaCl group, weekly SC injections
Procedure: Control animal were injected with 0.9% NaCl. Animals were weighed twice a week and food intake was measured daily for the first week and four times a week thereafter for a total of 25 days. Statistical analysis was performed using two-way Analysis of Variance (ANOVA) followed by the Tukey's pair-wise comparison test. Significance was considered when P value was less than 0.05.

[5] = tested on: patients with stable Type 2 diabetes; assay: Phase I/II single escalating dose clinical study of CJC-1134-PC; assay type: in vivo, human; conditions: for Nausea (%) / Vomiting (%): N=6
Procedure: Patients enrolled in the trial had HbA1c levels between 6.5% and 11%. Patients previously treated with oral anti-diabetic agents discontinued therapy at least 1 week prior to dosing. […] Injections were performed with a 29 gauge needle. Each cohort consisted of 7 patients (6 active, 1 placebo). The mean glucose values at baseline of the cohorts (without placebo) were 15.6, 12.2, 12.1, 11.2, 9.6 and 15.3 mmol/L, respectively.
The efficacy parameters were based on the group mean and individual mean glucose values. Glucose was measured 6 times per day (fasting, 2-hour post-breakfast, pre-lunch, 2-hour post-lunch, pre-dinner and bedtime) during the first week and 3 times per day (fasting, 2-hour post-breakfast and bedtime) for the remaining 5 weeks of the study. In addition, a placebo group was constructed for data analysis by pooling the patients (one per cohort) that received placebo during the study. […] At the third cohort (1250 micrograms), the mean glucose reduction from baseline for the first week was 19% (ranging from 15% to 24% with a mean reduction on day 7 of 20%), giving an average glucose value for the week of 9.8 mmol/L. This glucose reduction was significant against baseline (p=0.0007) and against placebo (p=0.0045). […] The glucose reductions of the subsequent cohorts were of similar magnitude and duration and confirmed this response. At the 2500 microgram cohort, the average glucose value for the first week was reduced to 9.5 mmol/L; the value for the 5000 microgram cohort for the first week was reduced to 8.4 mmol/L. (The American Diabetes Association (ADA) has a recommended target of HbA1C<7%; a mean daily glucose level of 9.5 mmol/L corresponds to an HbA1C level of 7%).

male Sprague-Dawley rats [6] = conditions: rat, in vivo; remark: listed apart in the source
[7] = 1250 μg (17.6 nmoles) single SC
[8] = 2500 μg (35.2 nmoles) single SC
[9] = 3750 μg (52.8 nmoles) single SC
[10] = 5000 μg (70.4 nmoles) single SC
[11] = first four cohorts (310, 620, 1250 and 2500 μg)

Compound: [Cl-].[Li+] [LiCl, Lithium chloride, reference compound]
kaolin intake after dosing relative to 0.9% NaCl (male Sprague-Dawley rats [1]): significant kaolin intake after 1 h

Compound: GLP-1: proglucagon-derived peptide secreted from intestinal L-cells; incretin
nausea and vomiting (subjects): lead to nausea and, less often, vomiting in a significant proportion of subjects

Compound: exendin-4(1-39) Lys^40 (ε-AEEA-MPA)-NH2 conjugated with albumin [CJC-1134-PC]
taste aversion response compared to unconjugated exendin-4 (male Sprague-Dawley rats [2]): significantly lower taste aversion response | clinical chemistry, hematology, urinalysis, organ weights, macroscopic evaluations (Sprague Dawley rats; rat 7-day study): no effects on clinical chemistry, hematology, urinalysis, or organ weights, or on macroscopic evaluations | mortality or serious signs of toxicity (Sprague Dawley rats; rat 7-day study, 1, 5 or 25 mg/kg/day SC): no mortality or serious signs of toxicity were observed | food consumption (Sprague Dawley rats; rat 7-day study, 5 and 25 mg/kg/day SC, similar to vehicle by day 4): dose dependent decrease in food consumption was observed at days 1-3 | macroscopic evaluations (Sprague Dawley rats; rat 28-day study): no effects on macroscopic evaluations | food consumption (Sprague Dawley rats; rat 28-day study, 25 mg/kg, comparable across groups by day 8): decrease in food consumption was observed at 25 mg/kg from days 1-7 | body weight (Sprague Dawley rats; rat 28-day study, 25 mg/kg, weight gain comparable days 4-28): Decreases in body weight were also observed at the 25 mg/kg/doses at days 1-4 | activity and fecal output (Sprague Dawley rats; rat 28-day study, following injections): transient decrease in activity and fecal output | tolerability (Sprague Dawley rats; rats, up to 25 mg/kg): generally well tolerated | clinical chemistry, hematology, urinalysis, organ weights, macroscopic evaluations (monkeys; monkey 7-day study): no effects on clinical chemistry, hematology, urinalysis, or organ weights, or on macroscopic evaluations | mortality or serious signs of toxicity (monkeys; monkey 7-day study, 0.4, 2 and 10 mg/kg/day SC): no mortality or serious signs of toxicity were observed | food consumption (number of biscuits per day) (monkeys; monkey 7-day study, days 1-3, all groups including vehicle control, comparable by days 4-7): Initial decreases in food consumption | body weight (monkeys; monkey 7-day study, moderately attenuated by day 7): dose-dependent decrease in body weight by day 3 | body weight (monkeys; monkey 28-day study): dose dependent decrease in body weight was observed throughout the 28-day period | clinical signs (monkeys; monkey 28-day study): transient decrease in activity, hunched posture, and decreased fecal output | macroscopic evaluations (monkeys; monkey 28-day study): no effects on macroscopic evaluations | food consumption (monkeys; monkey 28-day study, 10 mg/kg, comparable across groups by day 7): significantly reduced at 10/mg/kg on days 2 and 3 | tolerability (monkeys; monkeys, up to 10 mg/kg): generally well tolerated | blood glucose levels compared to 100 nmol/kg unconjugated exendin-4 ([3]; 100 nmol/kg single SC, 24 h post dose): significantly lower | blood glucose levels compared to unconjugated exendin-4 ([3]; 100 nmol/kg single SC, out to 48 h post dose): remained lower | food and water consumption compared to unconjugated exendin-4 ([3]; 24-47 h post dose): remained lower | food and water consumption compared to unconjugated exendin-4 ([3]; after 24 hours): significantly reduced | blood glucose levels compared to unconjugated exendin-4 ([3]; after 72 h): comparable | food consumption relative to exendin-4 treated mice ([3]; after 74 h, maintained out to 101 h post dose): only moderately lower | abnormal clinical signs [3]: No abnormal clinical signs | water consumption relative to exendin-4 treated mice ([3]; out to 101 h post dose): moderately lower | day from which reduction of cumulative weight gain was statistically significant ([4]; 100 nmol/kg, p≦0.05): 11 days | day from which reduction of cumulative weight gain was statistically significant ([4]; 200 nmol/kg, p≦0.01): 4 days | cumulative food intake relative to 0.9% NaCl group [4]: Reduction in cumulative food intake | cumulative weight gain compared to 0.9% NaCl [4]: significantly reduced | day on which decrease in cumulative food intake reached statistical significance [4]: 9 days | Nausea (%) ([5]; 310 μg (4.4 nmoles) single SC): 0% | Vomiting (%) ([5]; 310 μg (4.4 nmoles) single SC): 0% | Nausea (%) ([5]; 620 μg (8.7 nmoles) single SC): 0% | Vomiting (%) ([5]; 620 μg (8.7 nmoles) single SC): 0% | Nausea (%) [5, 7]: 0% | Vomiting (%) [5, 7]: 0% | Nausea (%) [5, 8]: 0% | Vomiting (%) [5, 8]: 0% | Nausea (%) [5, 9]: 17% | Vomiting (%) [5, 9]: 17% | Nausea (%) [5, 10]: 50% | Vomiting (%) [5, 10]: 17% | average glucose value for the first week ([5]; 1250 micrograms): 9.8 mmol/L | duration of glucose lowering effect ([5]; 1250 micrograms): more than 2 weeks | mean glucose reduction from baseline on day 7 ([5]; 1250 micrograms): 20% | mean glucose reduction from baseline for the first week ([5]; 1250 micrograms, p=0.0007 vs baseline, p=0.0045 vs placebo): 19% | average glucose value for the first week ([5]; 2500 microgram cohort): 9.5 mmol/L | average glucose value for the first week ([5]; 5000 microgram cohort): 8.4 mmol/L | symptoms (headache, dizziness, light-headedness without documented hypoglycaemia) ([5]; 5000 microgram cohort): symptoms linked to an over stimulation of the GLP-1 receptors were observed | injection site reactions [5, 11]: no injection site reactions | safety and tolerability [5, 11]: no safety or tolerability issues | efficacy on glucose ([5]; first two cohorts (310 and 620 micrograms)): Limited or no efficacy | average weight loss at day 7 ([5]; first two non-active cohorts): 0.4 kg | gastric stasis ([5]; in each of the 3750 and 5000 μg cohorts, post-lunch on day one): one mild and transient case of short-term gastric stasis | dose linearity of plasma concentrations ([5]; single SC dose, 310-5000 μg): dose linear | average weight loss at day 7 ([5]; three following cohorts where activity was observed on glucose): 0.9 kg | kaolin intake after dosing relative to 0.9% NaCl (male Sprague-Dawley rats [1]): kaolin intake was only moderately increased after 6 h | kaolin intake relative to 0.9% NaCl, first 2 h (male Sprague-Dawley rats [1]; first 2 h post dose): Minimal kaolin intake

abnormal clinical signs [3]: No abnormal clinical signs | kaolin intake relative to 0.9% NaCl, first 2 h (male Sprague-Dawley rats [6]): Minimal kaolin intake
Compound: exendin-4(1-39) [reference compound]
conditioned taste aversion (saccharin preference ratio compared to vehicle control) (male Sprague-Dawley rats [2]): decreased significantly the preference saccharine ratio | cumulative food intake relative to 0.9% NaCl group [4]: Reduction in cumulative food intake | cumulative weight gain compared to 0.9% NaCl [4]: not significant | day on which decrease in cumulative food intake reached statistical significance [4]: 16 days
